From the supplement of paper PMC9170038

System: MS2 coat protein
Experiment: apparent KD of MS2 coat protein; designed switch direction (-1 OFF switch, 1 ON switch): 1; higher = weaker reporter binding
Summary of the method: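 Apparent KD, taken as the median over clusters for each design, was obtained by curve-fitting normalised cluster fluorescence. Designed RNA switches had been transcribed on Illumina chips by stalled E. coli RNA polymerase and titrated with SNAP-549-labelled MS2 coat protein, doubling from 0.7 or 1.5 nM to 3 µM.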

[1] = Eterna round: R95, input ligand: FMN 200 uM
[2] = Eterna round: R95, input ligand: microRNA oligo, concentration not stated
[3] = Eterna round: R95, input ligand: none
[4] = input ligand: microRNA oligo, concentration not stated

Sequence | apparent KD of MS2 coat protein [1] [nM] | apparent KD of MS2 coat protein [2] [nM] | apparent KD of MS2 coat protein [3] [nM] | apparent KD of MS2 coat protein (input ligand: FMN 200 uM) [nM] | apparent KD of MS2 coat protein [4] [nM] | apparent KD of MS2 coat protein (input ligand: none) [nM]
UGUCCAGCCUGAGCUGGACAAAAGCAUGUACAUGAGGAUCACCCAUGUUCAUGUACAAGCUUUUUGCUCGUCUUAGC [salish99_208a_r3_067] (puzzle: Sensor for hsa-mir-208a) | 624 | 13.6 | 547 | – | – | –
UGUCCAGCCUGAGCUGGACAAAAGCAUGUACAUGAGGAUCACCCAUGUUCAUGUACAAGCUUUUUGCUCGUCUUGCA [salish99_208a_r3_109x] (puzzle: Sensor for hsa-mir-208a) | 637 | 14.5 | 492 | – | – | –
UGUUAACAUGAGGAUCACCCAUGUCAAAUGAAUCGAGGAUAUGGUAAGUAAUAAGAUAAUCUAGAAGGCGAAGUUG [Altered State 1-23 - Jieux - Same State 1] (puzzle: Same State 1) | 42.6 | 55.8 | 58 | – | – | –
UGUUAGUAGACAGGAUAUUGAAUGUUAAGUAUUAACAUGAGGAUCACCCAUGUAUUAGAUUGGUACAAGAAGGGUCAAGUAAGU [JR_SSNG2_Sub011] (Eterna round: R96, puzzle: Same State NG 2) | – | – | – | 380 | 540 | 247
UGUUAUUAGACAGGAUAUUGAAUGUUAAGUAUUAACAUGAGGAUCACCCAUGUAUUUCAUUCGUACAAGAAGGGUCAUGUUCCU [JR_SSNG2_Sub017] (Eterna round: R96, puzzle: Same State NG 2) | – | – | – | – | 162 | –
UGUUGUAUUACAGGAUAUCUAGUAUUUUUAUAUAGAGAAGGGUAUUCACAUGAGGAUCACCCAUGUAUAUACGAGGAAGUUGUG [JMF's solution 51] (Eterna round: R96, puzzle: Same State NG 1) | – | – | – | – | 23 | –
UGUUGUAUUACAGGAUAUCUAGUAUUUUUAUCUAGAGAAGGGUAUUCACAUGAGGAUCACCCAUGUAUAUACGAGGAAGUUGUG [JMF's solution 53] (Eterna round: R96, puzzle: Same State NG 1) | – | – | – | – | 25.9 | –
UGUUGUAUUACAGGAUAUCUAUUAGAUUUAUUUAGAGAAGGGUAUUCACAUGAGGAUCACCCAUGUAUAUACGAGGAAGUUGUG [JMF's solution 86] (Eterna round: R96, puzzle: Same State NG 1) | – | – | – | – | 40.2 | –
UGUUGUAUUACAGGAUAUCUAUUAUAUUUAUUUAGAGAAGGGUAUUCACAUGAGGAUCACCCAUGUAUAUACGAGGAAGUUGUG [JMF's solution 15] (Eterna round: R96, puzzle: Same State NG 1) | – | – | – | – | 36.4 | –
UGUUGUAUUACAGGAUAUCUAUUAUUUUGAUUUAGAGAAGGGUAUUCACAUGAGGAUCACCCAUGUAUAUACGAGGAAGUUGUG [JMF's solution 22] (Eterna round: R96, puzzle: Same State NG 1) | – | – | – | – | 34.4 | –
UGUUGUAUUACAGGAUAUCUAUUGUUUUUAGUUAGAGAAGGGUAUUCACAUGAGGAUCACCCAUGUAUAUACGAGGAAGUUGUG [JMF's solution 82] (Eterna round: R96, puzzle: Same State NG 1) | – | – | – | 59.9 | 34.6 | 49.9
UGUUGUUAAUUAGGAUAUGGGCACAUGAGGAUCACCCAUGUAUUGUCGAUGCUAUGUGGACACGUUUAGAAGGAAUGGCUAACA [SameState NG2 #91] (Eterna round: R96, puzzle: Same State NG 2) | – | – | – | 64.4 | 55.4 | 64.8
UUAACAUGAGGAUCACCCAUGUAUAGGGAGUUAGCAAUUUGACAGGAUAUUGAAGAUGUAGAUAGCAAGAAGGGUCGGUAGUCU [JR_SSNG3_Sub003] (Eterna round: R96, puzzle: Same State NG 3) | – | – | – | 39.9 | 41.3 | 45.9
UUAAGCCACGGGCAGGAUAUGUAUUAAAAUACAUGAGGAUCACCCAUGUGCAGGUGUAACACCUGACAGAAGGGCCAAUCGAGGC [Soteed - 6] (puzzle: Same State 2) | 36.6 | 182 | 284 | – | – | –
UUAAUAAUGAUAGGAUAUACAUGAGGAAUUCUCGUAGAAGGAUCAUGACAUGAGGAUCACCCAUGUAUCGCUCGAUAGAGCGUA [Mat - Same State NG 1 - JL mod - D35] (Eterna round: R96, puzzle: Same State NG 1) | – | – | – | 447 | 149 | 326
UUAAUGAAGUAAGGAUAUACAUGAGGAUUUCUCGUAGAAGGUACUAUACAUGAGGAUCACCCAUGUGCCGGUCCGUAGACUGGA [JL SSNG1 1.05] (Eterna round: R96, puzzle: Same State NG 1) | – | – | – | 342 | 297 | 607

Sequence | apparent KD of MS2 coat protein [1] [nM] | apparent KD of MS2 coat protein [2] [nM] | apparent KD of MS2 coat protein [3] [nM] | apparent KD of MS2 coat protein (input ligand: FMN 200 uM) [nM] | apparent KD of MS2 coat protein [4] [nM] | apparent KD of MS2 coat protein (input ligand: none) [nM]
UUAAUGAUGAUAGGAUAUACAUGAGGAAUUCUCGUAGAAGGAUCAUGACAUGAGGAUCACCCAUGUAUCGCUCGAAAGAGCGUA [Mat - Same State NG 1 - JL mod - D33] (Eterna round: R96, puzzle: Same State NG 1) | – | – | – | 570 | 234 | 205
UUAAUUAUGUAAGGAUAUACAUGAGGAUUUCUCGUAGAAGGUACAUUACAUGAGGAUCACCCAUGUAGGUGUCCGUAGACGCCA [JL SSNG1 1.07] (Eterna round: R96, puzzle: Same State NG 1) | – | – | – | 142 | 78.3 | 129
UUAAUUUACUGAGGAUAUCGUGUCGACUGAGGUGACAUGAGGAUCACCCAUGUGAGAAGAGGUAUCGAGAAGGCAGUAUUCAUA [JR_SSNG2_Sub021] (Eterna round: R96, puzzle: Same State NG 2) | – | – | – | 317 | 545 | 1120
UUACUCAUGUAAGGAUAUGCAGCCGAAACGGCUGCAGAAGGUACUAUAAUACAUGAGGAUCACCCAUGUCAAAAUAAUUUUUAC [Mat - Same State NG 1 - JL mod - D71] (Eterna round: R96, puzzle: Same State NG 1) | – | – | – | 44.9 | 21.7 | 27.5
UUACUCAUGUAAGGAUAUGCAGCCGUUUCGGCUGCAGAAGGUACUAUAAUACAUGAGGAUCACCCAUGUCUCUAUUAUUUAGUU [JL SSNG1 1.43] (Eterna round: R96, puzzle: Same State NG 1) | – | – | – | 151 | 39.6 | 52.7
UUAUAACAUGAGGAUCACCCAUGUCAACAAAGUCGAGGAUAUGGGCAUAGAUUAUAAGAACCAGAAGGCGAAUAUG [Mat - Same State 1 - Mod of UCT - D41] (puzzle: Same State 1) | 140 | 11.3 | 1.69 | – | – | –
UUAUUCUAUAUAGGAUAUUGAUGCAAUUUACCUCAAGAAGGAUAUACAUGAGGAUCACCCAUGUUGGAUAGGGUUAGUUUGUUU [JR_SSNG1_Sub081] (Eterna round: R96, puzzle: Same State NG 1) | – | – | – | – | 56 | –
UUCCCAUCGGGAGGAUAUGGUGCCUUAUUGGUGCUAGAAGGUCCAACAUGAGGAUCACCCAUGUGGGAGUGGUCUAAUGACCUC [SS NG10LRO06] (Eterna round: R96, puzzle: Same State NG 1) | – | – | – | 338 | 204 | 355
UUGAAGAAUUAAGGAUAUUGAAUACAUAUGUUUAACAUGAGGAUCACCCAUGUGGGUUGCGGUGUCGAGAAGGUAAAUUACUAG [JL SSNG2 1.50] (Eterna round: R96, puzzle: Same State NG 2) | – | – | – | 256 | 177 | 207
UUGAUUAACGUAGGAUAUCGACCUACAUGAGGAUCACCCAUGUCUUUGUAUAGUUUUUUUUGUUACGAGAAGGACGUUAUGUAU [JR_SSNG2_Sub067] (Eterna round: R96, puzzle: Same State NG 2) | – | – | – | 78.6 | 100 | 106
UUGGUUCUCGUAGGAUAUGUAGGAUAUGCCUACAUGAGGAUCACCCAUGUUCGCAUGGCAGAAGGACAGAAGGACGAUCACCAU [pwkr ssNG2 2FMN + 1F5.17] (Eterna round: R96, puzzle: Same State NG 2) | – | – | – | – | 136 | –
UUGGUUGUCGUAGGAUAUGUAGGAUAUUCCUACAUGAGGAUCACCCAUGUUCGCAUGGAAGAAGGACAGAAGGACGAUGACCAU [pwkr ssNG2 2FMN + 1F5.20] (Eterna round: R96, puzzle: Same State NG 2) | – | – | – | 16.8 | 904 | 836
UUUACAUUACGAGGAUAUCAUUUAUUUCAUGUUUGAGAAGGCGUUUUUUUUAUUACCUUACAUGAGGAUCACCCAUGUUUCUUU [JR_SSNG1_Sub043] (Eterna round: R96, puzzle: Same State NG 1) | – | – | – | – | 26.2 | –
UUUAGAUCGCGAGGAUAUCGCGAGGAUCACCCGUGAGAAGGCGCAGAGCCGAGGAUCACCCGGCUGAUCCUGAGAAGGAGGUCU (Eterna round: R96, puzzle: Same State NG 1) | – | – | – | 45.1 | 87.7 | 129
UUUAGUUGCGGGCAGGAUAUGUAUUAAAAUACAUGAGGAUCACCCAUGUGCGGGUGUAACACCCGACAGAAGGGCCAAUCGCGAC [Laonerce - 13] (puzzle: Same State 2) | – | 220 | – | – | – | –
UUUAUUAAUAUAGGAUAUGUAAAACAUGAGGAUCACCCAUGUGAUAUCGUGAGUAAGGAGAGAGAACAGAAGGAUAAUUUUUUU [JMF's solution 2] (Eterna round: R96, puzzle: Same State NG 2) | – | – | – | 39.7 | 35.1 | 32.5
